Measurements taken from doi:10.1101/2021.06.30.450611.

Each binder was assayed against Taxol-stabilised microtubules assembled from pig tubulin (single molecule motility assay) (pig) (assay: single molecule TIRF motility assay).

Row | Binder | dwell time
1 | full-length recombinant human KIF1C-GFP (wildtype) (natural protein) MAGASVKVAVRVRPFNARETSQDAKCVVSMQGNTTSIINPKQSKDAPKSFTFDYSYWSHTSTEDPQFASQQQVYRDIGEEMLLHAFEGYNVCIFAYGQTGAGKSYTMMGRQEPGQQGIVPQLCEDLFSRVSENQSAQLSYSVEVSYMEIYCERVRDLLNPKSRGSLRVREHPILGPYVQDLSKLAVTSYADIADLMDCGNKARTVAATNMNETSSRSHAVFTIVFTQRCHDQLTGLDSEKVSKISLVDLAGSERADSSGARGMRLKEGANINKSLTTLGKVISALADMQSKKRKSDFIPYRDSVLTWLLKENLGGNSRTAMIAALSPADINYEETLSTLRYADRTKQIRCNAIINEDPNARLIRELQEEVARLRELLMAQGLSASALEGLKTEEGSVRGALPAVSSPPAPVSPSSPTTHNGELEPSFSPNTESQIGPEEAMERLQETEKIIAELNETWEEKLRKTEALRMEREALLAEMGVAVREDGGTVGVFSPKKTPHLVNLNEDPLMSECLLYHIKDGVTRVGQVDMDIKLTGQFIREQHCLFRSIPQPDGEVVVTLEPCEGAETYVNGKLVTEPLVLKSGNRIVMGKNHVFRFNHPEQARLERERGVPPPPGPPSEPVDWNFAQKELLEQQGIDIKLEMEKRLQDLENQYRKEKEEADLLLEQQRLYADSDSGDDSDKRSCEESWRLISSLREQLPPTTVQTIVKRCGLPSSGKRRAPRRVYQIPQRRRLQGKDPRWATMADLKMQAVKEICYEVALADFRHGRAEIEALAALKMRELCRTYGKPDGPGDAWRAVARDVWDTVGEEEGGGAGSGGGSEEGARGAEVEDLRAHIDKLTGILQEVKLQNSSKDRELQALRDRMLRMERVIPLAQDHEDENEEGGEVPWAPPEGSEAAEEAAPSDRMPSARPPSPPLSSWERVSRLMEEDPAFRRGRLRWLKQEQLRLQGLQGSGGRGGGLRRPPARFVPPHDCKLRFPFKSNPQHRESWPGMGSGEAPTPLQPPEEVTPHPATPARRPPSPRRSHHPRRNSLDGGGRSRGAGSAQPEPQHFQPKKHNSYPQPPQPYPAQRPPGPRYPPYTTPPRMRRQRSAPDLKESGAAV | 36.3 s
2 | full-length recombinant human KIF1C(P176L)-GFP (natural protein) MAGASVKVAVRVRPFNARETSQDAKCVVSMQGNTTSIINPKQSKDAPKSFTFDYSYWSHTSTEDPQFASQQQVYRDIGEEMLLHAFEGYNVCIFAYGQTGAGKSYTMMGRQEPGQQGIVPQLCEDLFSRVSENQSAQLSYSVEVSYMEIYCERVRDLLNPKSRGSLRVREHPILGLYVQDLSKLAVTSYADIADLMDCGNKARTVAATNMNETSSRSHAVFTIVFTQRCHDQLTGLDSEKVSKISLVDLAGSERADSSGARGMRLKEGANINKSLTTLGKVISALADMQSKKRKSDFIPYRDSVLTWLLKENLGGNSRTAMIAALSPADINYEETLSTLRYADRTKQIRCNAIINEDPNARLIRELQEEVARLRELLMAQGLSASALEGLKTEEGSVRGALPAVSSPPAPVSPSSPTTHNGELEPSFSPNTESQIGPEEAMERLQETEKIIAELNETWEEKLRKTEALRMEREALLAEMGVAVREDGGTVGVFSPKKTPHLVNLNEDPLMSECLLYHIKDGVTRVGQVDMDIKLTGQFIREQHCLFRSIPQPDGEVVVTLEPCEGAETYVNGKLVTEPLVLKSGNRIVMGKNHVFRFNHPEQARLERERGVPPPPGPPSEPVDWNFAQKELLEQQGIDIKLEMEKRLQDLENQYRKEKEEADLLLEQQRLYADSDSGDDSDKRSCEESWRLISSLREQLPPTTVQTIVKRCGLPSSGKRRAPRRVYQIPQRRRLQGKDPRWATMADLKMQAVKEICYEVALADFRHGRAEIEALAALKMRELCRTYGKPDGPGDAWRAVARDVWDTVGEEEGGGAGSGGGSEEGARGAEVEDLRAHIDKLTGILQEVKLQNSSKDRELQALRDRMLRMERVIPLAQDHEDENEEGGEVPWAPPEGSEAAEEAAPSDRMPSARPPSPPLSSWERVSRLMEEDPAFRRGRLRWLKQEQLRLQGLQGSGGRGGGLRRPPARFVPPHDCKLRFPFKSNPQHRESWPGMGSGEAPTPLQPPEEVTPHPATPARRPPSPRRSHHPRRNSLDGGGRSRGAGSAQPEPQHFQPKKHNSYPQPPQPYPAQRPPGPRYPPYTTPPRMRRQRSAPDLKESGAAV | 25.8 s
3 | full-length recombinant human KIF1C(R169W)-GFP (natural protein) MAGASVKVAVRVRPFNARETSQDAKCVVSMQGNTTSIINPKQSKDAPKSFTFDYSYWSHTSTEDPQFASQQQVYRDIGEEMLLHAFEGYNVCIFAYGQTGAGKSYTMMGRQEPGQQGIVPQLCEDLFSRVSENQSAQLSYSVEVSYMEIYCERVRDLLNPKSRGSLRVWEHPILGPYVQDLSKLAVTSYADIADLMDCGNKARTVAATNMNETSSRSHAVFTIVFTQRCHDQLTGLDSEKVSKISLVDLAGSERADSSGARGMRLKEGANINKSLTTLGKVISALADMQSKKRKSDFIPYRDSVLTWLLKENLGGNSRTAMIAALSPADINYEETLSTLRYADRTKQIRCNAIINEDPNARLIRELQEEVARLRELLMAQGLSASALEGLKTEEGSVRGALPAVSSPPAPVSPSSPTTHNGELEPSFSPNTESQIGPEEAMERLQETEKIIAELNETWEEKLRKTEALRMEREALLAEMGVAVREDGGTVGVFSPKKTPHLVNLNEDPLMSECLLYHIKDGVTRVGQVDMDIKLTGQFIREQHCLFRSIPQPDGEVVVTLEPCEGAETYVNGKLVTEPLVLKSGNRIVMGKNHVFRFNHPEQARLERERGVPPPPGPPSEPVDWNFAQKELLEQQGIDIKLEMEKRLQDLENQYRKEKEEADLLLEQQRLYADSDSGDDSDKRSCEESWRLISSLREQLPPTTVQTIVKRCGLPSSGKRRAPRRVYQIPQRRRLQGKDPRWATMADLKMQAVKEICYEVALADFRHGRAEIEALAALKMRELCRTYGKPDGPGDAWRAVARDVWDTVGEEEGGGAGSGGGSEEGARGAEVEDLRAHIDKLTGILQEVKLQNSSKDRELQALRDRMLRMERVIPLAQDHEDENEEGGEVPWAPPEGSEAAEEAAPSDRMPSARPPSPPLSSWERVSRLMEEDPAFRRGRLRWLKQEQLRLQGLQGSGGRGGGLRRPPARFVPPHDCKLRFPFKSNPQHRESWPGMGSGEAPTPLQPPEEVTPHPATPARRPPSPRRSHHPRRNSLDGGGRSRGAGSAQPEPQHFQPKKHNSYPQPPQPYPAQRPPGPRYPPYTTPPRMRRQRSAPDLKESGAAV | 16 s
